Results on 1 molecule are retold here after article PMC8040518 (The Journal of Experimental Medicine, 2021).

The experiment deals with LGTV E protein (strain TP21) in C-prM-E–transfected HEK-293T cells (Langat virus strain TP21, UniProt Q9IG40). The experiment is described as follows: cell-based or functional assay.

B1: POWV-80 mAb (antibody, V domains shown)
VH: EVKLVESEGGLVQPGSSMKVSCTASGFTFSHYYMAWVRQVPEKGLEWVANINYDGTSTYYLDSLKSRFIISRDNANNILYLQMSSLKSEDTAIYYCAREEGYGNPYPYWYFDVWGTGTTVTVSS
VL: QIVLTQSPAILSASPGEKVTMTCRASSSVSYMHWYQQKPGSSPKSWIYATSNLASGVPTRFSGSGSGTSYSLTISRVEAEDAATYYCQQRSSNPRTFGGGTKLEIK
For B1, the “EC50 of neutralization of LGTV, FRNT in Vero cells” value amounted to 10.4 µg/mL.
